For 49 molecules, pKd results are on record in paper PMC9482650, “Quantitative fragmentomics allow affinity mapping of interactomes” (Nature Communications, 2022).

One experiment concerns the target T1, DLG3_1, Q92796.
T1 sequence (Q92796 125-227, limits assumed, looked up): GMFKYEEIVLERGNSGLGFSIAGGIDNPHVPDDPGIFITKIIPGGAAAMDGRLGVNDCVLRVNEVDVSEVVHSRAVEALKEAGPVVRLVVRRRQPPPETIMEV
The experiment in a line: holdup assay. Further details: key: below the threshold = too weak to quantify, mostly under pKd 3.1 to 4.

The target of a further experiment is T2, PARD3B_1, Q8TEW8.
T2 sequence (Q8TEW8 196-299, limits assumed, looked up): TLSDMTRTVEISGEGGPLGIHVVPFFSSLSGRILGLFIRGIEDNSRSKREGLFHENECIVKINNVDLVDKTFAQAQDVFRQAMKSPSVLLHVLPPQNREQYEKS
Put plainly: holdup assay. Further details: key: below the threshold = too weak to quantify, mostly under pKd 3.1 to 4.

Where [1] appears, read: plain residues with an end cap or a label only (N-terminal biotin on a linker: ado-ado).
[2] abbreviates: modified: phospho on T at position -2 from the C-terminal residue.
Setting [3] is: modified: phospho on T at position -1 from the C-terminal residue.

The pKd is −log10 of the Kd, conventionally taken in molar units. In the case of GDGLDDEIAV [NOS1AP, O75052], the pKd result is “below the threshold” with DLG3_1, Q92796 (setting [1]) and “below the threshold” with PARD3B_1, Q8TEW8 (setting [1]).

As for LGHTPFVDEL [UQCRC2, P22695], the pKd entry with DLG3_1, Q92796 (setting [1]) is on record as “below the threshold”; with PARD3B_1, Q8TEW8 (setting [1]) it was “below the threshold”. For the molecule SKSLERATQL [COMMD3, Q9UBI1], the pKd in the experiment with DLG3_1, Q92796 (setting [1]) was 3.72; with PARD3B_1, Q8TEW8 (setting [1]), 3.95. For NASRTRITFV [MCM7, P33993], in that order: 4.19 and “below the threshold”.

Regarding WRSKRTDTLL [RAMP3, O60896], the pKd result with DLG3_1, Q92796 (setting [1]) is “below the threshold”; with PARD3B_1, Q8TEW8 (setting [1]) it was 4.32. For DQPLEKSTKL [AKAP10, O43572], in that order: “below the threshold” and 4.15. For GQETPLNTFC [MAP7D2, Q96T17] the same measures were “below the threshold” and “below the threshold”. Take RRVRKLPSTTL [RPS6KA1_-2P, Q15418]: the pKd result in the experiment with DLG3_1, Q92796 (setting [2]) was “below the threshold”; in the experiment with PARD3B_1, Q8TEW8 (setting [2]) it was 3.9.

LEPAVRSSEL [SH2D3C, Q8N5H7]: the negative-log Kd (pKd) entry with DLG3_1, Q92796 (setting [1]) is reported as “below the threshold”; in the experiment with PARD3B_1, Q8TEW8 (setting [1]) it was “below the threshold”.

With SMLNRRTTPV [CACNG4, Q9UBN1], the pKd with DLG3_1, Q92796 (setting [1]) is 3.71; with PARD3B_1, Q8TEW8 (setting [1]), “below the threshold”. Turning to QFTLRHWLKV [SLC6A3, Q01959], the pKd entry with DLG3_1, Q92796 (setting [1]) is “below the threshold”; with PARD3B_1, Q8TEW8 (setting [1]) it was 3.87. As to LETREPTNTL [GRIP1, Q9Y3R0], the negative-log Kd (pKd) entry with DLG3_1, Q92796 (setting [1]) is “below the threshold”; with PARD3B_1, Q8TEW8 (setting [1]), 3.84. For RTQSSDSAYV [GJD2, Q9UKL4] the same measures were “below the threshold” and 4.63. For RPGFASESKV [ADRB1, P08588] the same measures were 3.62 and “below the threshold”.

In the case of PAPGQHTTQI [STK16, O75716], the pKd entry in the experiment with DLG3_1, Q92796 (setting [1]) is “below the threshold”; with PARD3B_1, Q8TEW8 (setting [1]) it was 3.69. For TMQMSLKDLL [GLA, P06280] the same measures were 3.56 and 3.93.

In the case of LTAQEQPVYI [APBA1, Q02410], the pKd entry is “below the threshold” in the experiment with DLG3_1, Q92796 (setting [1]) and 5 with PARD3B_1, Q8TEW8 (setting [1]). For NVYGTESVKI [GRIA3, P42263], in that order: “below the threshold” and 4.8. For QNRIITKTDV [SMCHD1, A6NHR9] the same measures were “below the threshold” and “below the threshold”.

Turning to QSPPNIYYKV [EFNB3, Q15768], the negative-log Kd (pKd) result with DLG3_1, Q92796 (setting [1]) is “below the threshold”; with PARD3B_1, Q8TEW8 (setting [1]), 3.77. For GQSVDLVFPV [AKIP1, Q9NQ31], in that order: “below the threshold” and 3.8. For DFRHKSSFVI [JAM3, Q9BX67] the same measures were “below the threshold” and 5.03. For REVVMRVTTV [MARCHF9, Q86YJ5], in that order: 4.38 and “below the threshold”. Turning to SRPTKGPTLL [PLEKHH2, Q8IVE3], the pKd entry in the experiment with DLG3_1, Q92796 (setting [1]) is “below the threshold”; in the experiment with PARD3B_1, Q8TEW8 (setting [1]), 4.41. For GDHLDRRVVL [VAC14, Q08AM6], in that order: “below the threshold” and 5.17. As for EYRKDNKVAA [LSM14A, Q8ND56;Q8ND56-2], the pKd entry in the experiment with PARD3B_1, Q8TEW8 (setting [1]) is recorded as “below the threshold”. As for PMESGICTIV [TTC24, A2A3L6], the negative logarithm of the Kd (pKd) in the experiment with DLG3_1, Q92796 (setting [1]) was determined as 4.18; in the experiment with PARD3B_1, Q8TEW8 (setting [1]), 4.26. On to LRYARPADAL [PPP1R3G, B7ZBB8], for which the pKd result with DLG3_1, Q92796 (setting [1]) is listed as “below the threshold”; with PARD3B_1, Q8TEW8 (setting [1]) it was “below the threshold”. For the molecule DSATVRTYSC [PPFIA1, Q13136], the pKd result in the experiment with DLG3_1, Q92796 (setting [1]) was “below the threshold”; in the experiment with PARD3B_1, Q8TEW8 (setting [1]) it was 3.57. For RALRASESGI [ADGRE5, P48960], in that order: “below the threshold” and “below the threshold”.

For the molecule AEDEEIQTKM [UNC93A, Q86WB7], the pKd entry was “below the threshold” with DLG3_1, Q92796 (setting [1]) and “below the threshold” with PARD3B_1, Q8TEW8 (setting [1]). On to EEDTAEKDEL [HSPA5, P11021], for which the pKd result was “below the threshold” with DLG3_1, Q92796 (setting [1]) and 3.72 with PARD3B_1, Q8TEW8 (setting [1]). For GCQGETEDVL [PTH2R, P49190], in that order: “below the threshold” and 4.05. For FEEEAEEEVA [TUBB4B, P68371] the same measures were “below the threshold” and 3.98. For SRPRPDDLEI [GJA1, P17302] the same measures were “below the threshold” and “below the threshold”. In the case of PDGEMMEVLI [AMOTL1, Q8IY63], the pKd result with DLG3_1, Q92796 (setting [1]) was “below the threshold”; with PARD3B_1, Q8TEW8 (setting [1]) it was 4.95. For QYPGSPDSWV [PKP4, Q99569] the same measures were 3.97 and 3.56. VISERNSTTV [C3AR1, Q16581]: the pKd was 4.06 with DLG3_1, Q92796 (setting [1]) and “below the threshold” in the experiment with PARD3B_1, Q8TEW8 (setting [1]). Turning to RRVRKLPSTTL [RPS6KA1_-1P, Q15418], the pKd with DLG3_1, Q92796 (setting [3]) was found to be 3.57; in the experiment with PARD3B_1, Q8TEW8 (setting [3]) it was 4.04. Turning to LSEFKAMDSF [CTNNA2, P26232], the pKd result in the experiment with DLG3_1, Q92796 (setting [1]) is “below the threshold”; with PARD3B_1, Q8TEW8 (setting [1]), 3.59. For PELESKESVL [SLC1A4, P43007], in that order: “below the threshold” and 4.21.

Regarding RQSILFSTEV [BCR, P11274], the pKd is 4.17 in the experiment with DLG3_1, Q92796 (setting [1]) and “below the threshold” in the experiment with PARD3B_1, Q8TEW8 (setting [1]). For ANGLMQTSKL [SSTR5, P35346], in that order: “below the threshold” and 4.16.

On to ETSLVKGIDI [DENND5A, Q6IQ26], for which the pKd entry in the experiment with DLG3_1, Q92796 (setting [1]) is “below the threshold”; with PARD3B_1, Q8TEW8 (setting [1]), 4.23. As for YPKQMPLSQV [FZD8, Q9H461], the pKd result is “below the threshold” with DLG3_1, Q92796 (setting [1]) and “below the threshold” with PARD3B_1, Q8TEW8 (setting [1]). For the molecule PASAKGPLGV [CLDN19, Q8N6F1], the pKd entry with DLG3_1, Q92796 (setting [1]) is on record as “below the threshold”; with PARD3B_1, Q8TEW8 (setting [1]) it was “below the threshold”. Regarding QELLEYETTV [XKR7, Q5GH72], the pKd was 4.51 with DLG3_1, Q92796 (setting [1]) and “below the threshold” with PARD3B_1, Q8TEW8 (setting [1]). Regarding PLDSQQHTEV [FAT1, Q14517], the pKd with DLG3_1, Q92796 (setting [1]) was 3.8; with PARD3B_1, Q8TEW8 (setting [1]), “below the threshold”.

In the case of RELVMRVTTV [MARCHF4, Q9P2E8], the pKd is 4.38 with DLG3_1, Q92796 (setting [1]) and “below the threshold” with PARD3B_1, Q8TEW8 (setting [1]).
